In assay [1] the target is T1, nonhuman primate CD36 (on HEK 293 cells) (cynomolgus monkey / rhesus macaque, UniProt P16671 2-472 (human entry)).
T1 construct: also called non-human primate CD36 (cynomolgus)
Briefly: FACS, HEK 293 cells transiently overexpressing CD36. For orientation: In flow cytometry, cells or beads pass a laser one at a time.
Procedure: After transiently transfecting the HEK 293 cells with a CD36 expression construct, cells were treated with three-fold serial dilution of each candidate antibody (10 dilutions starting at 500 nM). […] After incubation with the cells, an anti-human fluorescently labelled antibody was added to the cell media, allowed to incubate further, and the unbound antibody was washed off of the cells. Subsequently, the cells were subjected to FACS analysis to determine antibody binding to the cells. The results were fitted to a sigmoidal titration curve. Using a nonlinear regression model, the EC₅₀ values for each antibody were calculated from the GeoMFI and MFI values using the log(agonist) versus response (four parameters) fitting on the data transformed according to X=Log[X] in GraphPad PRISM.

The target in assay [2] is T2, purified biotin-tagged human CD36 (human, UniProt P16671 30-439, limits assumed, biotin tag, site not stated). Briefly: AlphaScreen competition; competitor FA6-152 on acceptor beads. In general terms: Alpha assays give light when donor and acceptor beads are brought close together.
T2 sequence (P16671 30-439 limits assumed): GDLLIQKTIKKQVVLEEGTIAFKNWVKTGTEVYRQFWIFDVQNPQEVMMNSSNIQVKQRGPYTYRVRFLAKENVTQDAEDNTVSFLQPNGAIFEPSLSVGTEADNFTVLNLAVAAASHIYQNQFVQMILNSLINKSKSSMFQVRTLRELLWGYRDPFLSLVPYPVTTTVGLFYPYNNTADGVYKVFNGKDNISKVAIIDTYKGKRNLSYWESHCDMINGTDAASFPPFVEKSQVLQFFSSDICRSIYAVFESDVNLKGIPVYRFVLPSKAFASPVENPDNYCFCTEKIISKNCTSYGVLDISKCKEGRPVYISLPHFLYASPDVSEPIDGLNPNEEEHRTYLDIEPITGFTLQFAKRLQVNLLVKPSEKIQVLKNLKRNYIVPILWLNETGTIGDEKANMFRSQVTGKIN
In assay [3] the target is T2, purified biotin-tagged human CD36. Nature of the assay: AlphaScreen competition; competitor 1G04 on acceptor beads.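 Note: streptavidin donor beads excited at 680 nm release singlet oxygen, and the light signal needs a nearby acceptor bead, with 30 min donor-bead incubation at 25 °C in the dark.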
Assay [4] deals with T3, human CD36 (Sino Biological) (human, UniProt P16671 30-439).
T3 construct: Bought protein coated on ELISA plates
T3 sequence (P16671 30-439 limits assumed): as above
Briefly: ELISA, plates coated with human CD36 (Sino Biological), antibody titrated, OD630nm.
Source text: Binding was first tested using an ELISA assay in which 96-well ELISA plates were coated with human CD36 (Sino Biological) or mouse CD36 protein.

Assay [5] has as its target T4, human CD36 (on HEK 293 or SCC25 cells) (human, UniProt P16671 2-472).
T4 construct: Overexpressed transiently or stably on HEK 293 cells, or stably on SCC25 cells; also called huCD36
Briefly: FACS, SCC25 cells stably expressing human CD36.
Procedure: SCC25 cells were treated with 10-fold serial dilution of each antibody (5 dilutions starting at 100 nM). After incubation with the cells, an anti-human fluorescently labelled antibody was added to the cell media, allowed to incubate further, and the unbound antibody was washed off of the cells. Subsequently, the cells were subjected to FACS analysis to determine antibody binding to the cells. The results were fitted to a sigmoidal titration curve. Using a nonlinear regression model, the EC₅₀ values for each antibody were calculated from the GeoMFI and MFI values using the log(agonist) versus response (four parameters) fitting on the data transformed according to X=Log[X] in GraphPad PRISM.

The target of assay [6] is T5, mouse CD36 (on HEK 293 cells) (mouse, UniProt Q08857 1-472).
T5 construct: also called Murine CD36
T5 sequence (Q08857 whole entry): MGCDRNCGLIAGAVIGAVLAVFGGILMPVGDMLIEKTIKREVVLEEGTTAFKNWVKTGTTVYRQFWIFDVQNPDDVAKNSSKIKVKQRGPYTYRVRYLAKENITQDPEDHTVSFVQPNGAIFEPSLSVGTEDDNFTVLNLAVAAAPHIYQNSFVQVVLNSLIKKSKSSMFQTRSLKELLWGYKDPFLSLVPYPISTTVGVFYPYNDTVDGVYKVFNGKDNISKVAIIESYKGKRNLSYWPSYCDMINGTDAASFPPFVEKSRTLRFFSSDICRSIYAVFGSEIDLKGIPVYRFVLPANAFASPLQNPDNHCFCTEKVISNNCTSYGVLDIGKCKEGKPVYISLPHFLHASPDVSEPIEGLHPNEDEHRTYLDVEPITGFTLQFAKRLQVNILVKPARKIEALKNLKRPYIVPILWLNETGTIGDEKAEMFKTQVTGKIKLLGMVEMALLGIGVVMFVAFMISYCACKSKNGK
Nature of the assay: FACS, HEK 293 cells transiently overexpressing CD36.

The target in assay [7] is T4, human CD36 (on HEK 293 or SCC25 cells). Described as above.
Assay [8] addresses T6, C1q human protein (human, UniProt P02745 23-245; P02746 28-253; P02747 29-245).
T6 construct: also called complement C1q protein
Nature of the assay: ELISA, plates coated with the antibody, C1q human protein titrated, Mean Absorbance (OD Units).
Procedure: Binding to complement C1q protein was also measured, using a standard ELISA assay in which 96-well ELISA plates were coated with the tested antibodies and C1q human protein was added (2.5-fold serial dilution starting at 250 g/mL).

The target of assay [9] is T4, human CD36 (on HEK 293 or SCC25 cells). Briefly: cell-based or functional assay.
In assay [10] the target is T7, Human FcγRIIa (131R) (human, UniProt P12318).
T7 construct: soluble receptor protein; bar 6 of each group
T7 sequence (receptor, looked up): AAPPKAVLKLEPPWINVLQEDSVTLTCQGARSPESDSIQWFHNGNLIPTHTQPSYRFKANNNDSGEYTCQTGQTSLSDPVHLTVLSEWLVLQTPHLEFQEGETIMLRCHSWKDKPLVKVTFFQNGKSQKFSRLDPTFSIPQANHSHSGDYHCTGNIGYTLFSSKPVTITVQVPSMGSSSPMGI
Nature of the assay: SPR, antibody immobilized through its light chains, soluble receptor injected; Mean Relative Response (RU).
Procedure: (§1) The binding of the different Fc-formatted anti-CD36 antibodies to FcγRs and FcRn was measured by SPR by immobilizing the antibodies through their light chains. The setup for these assays orients the antibody such that the Fc domain is solvent-exposed, allowing quantification of the interaction with soluble receptor proteins. Antibodies with well-defined binding properties were included as positive/negative controls in all the assays.

Assay [11] deals with T8, Human FcγRIIIa (158F) (human, UniProt P08637).
T8 construct: soluble receptor protein; bar 1 of each group
T8 sequence (P08637 17-208 limits assumed): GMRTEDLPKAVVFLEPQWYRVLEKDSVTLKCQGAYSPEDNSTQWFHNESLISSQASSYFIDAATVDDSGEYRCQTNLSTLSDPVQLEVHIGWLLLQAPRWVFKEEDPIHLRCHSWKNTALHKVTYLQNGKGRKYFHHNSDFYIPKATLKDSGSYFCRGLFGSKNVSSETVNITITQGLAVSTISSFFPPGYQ
The assay is described as above.
Procedure: as §1

Assay [12] addresses T9, Human FcγRIIIa (158V) (human, UniProt P08637).
T9 construct: soluble receptor protein; bar 2 of each group
The description is as above.
Procedure: as §1

Assay [13] addresses T10, Human FcγRI (human, UniProt P12314).
T10 construct: soluble receptor protein; bar 10 of each group
The description is as above.
Procedure: as §1

Assay [14] deals with T11, Human FcγRIIa (131H) (human, UniProt P12318).
T11 construct: soluble receptor protein; bar 5 of each group
T11 sequence (receptor, looked up): T7 sequence (receptor, looked up) with R132H
Described as above.
Procedure: as §1

For assay [15], the target named is T12, Human FcγRIIIb (human, UniProt O75015).
T12 construct: soluble receptor protein; bar 3 of each group
T12 sequence (O75015 17-200 limits assumed): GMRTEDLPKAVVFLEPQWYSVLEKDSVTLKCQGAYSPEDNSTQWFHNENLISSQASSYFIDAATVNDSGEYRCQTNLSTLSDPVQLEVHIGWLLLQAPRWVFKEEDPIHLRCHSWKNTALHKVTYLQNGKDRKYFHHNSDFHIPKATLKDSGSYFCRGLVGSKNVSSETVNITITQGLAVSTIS
The assay is described as above.
Procedure: as §1

Assay [16] deals with T13, Cyno FcγRIII (cynomolgus monkey, UniProt Q8SPW2).
T13 construct: soluble receptor protein; bar 4 of each group
T13 sequence (Q8SPW2 17-208 limits assumed): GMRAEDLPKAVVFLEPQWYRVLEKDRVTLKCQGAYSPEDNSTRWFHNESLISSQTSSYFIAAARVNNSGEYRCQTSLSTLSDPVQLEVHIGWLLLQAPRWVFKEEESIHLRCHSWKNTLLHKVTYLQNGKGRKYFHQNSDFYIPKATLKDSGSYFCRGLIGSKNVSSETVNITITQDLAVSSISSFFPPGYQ
Described as above.
Procedure: as §1

Assay [17] addresses T14, Cyno FcγRIIa (Macaca fascicularis, UniProt A0A140HDN0).
T14 construct: soluble receptor protein; bar 8 of each group
T14 sequence (receptor): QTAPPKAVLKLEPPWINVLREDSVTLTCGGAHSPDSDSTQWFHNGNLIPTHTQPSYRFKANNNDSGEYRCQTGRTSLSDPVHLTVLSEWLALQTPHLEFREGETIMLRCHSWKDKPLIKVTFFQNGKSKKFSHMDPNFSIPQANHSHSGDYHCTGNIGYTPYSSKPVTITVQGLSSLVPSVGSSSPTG
The assay is described as above.
Procedure: as §1

Assay [18] deals with T15, Human FcγRIIb (human, UniProt P31994).
T15 construct: soluble receptor protein; bar 7 of each group
T15 sequence (receptor, looked up): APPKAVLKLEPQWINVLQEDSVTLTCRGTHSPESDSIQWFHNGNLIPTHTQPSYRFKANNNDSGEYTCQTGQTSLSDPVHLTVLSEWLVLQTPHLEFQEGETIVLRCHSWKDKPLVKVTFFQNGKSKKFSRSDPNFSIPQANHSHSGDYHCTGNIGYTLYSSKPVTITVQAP
The description is as above.
Procedure: as §1

Assay [19] has as its target human FcRn (human, UniProt P55899 24-297; P61769 21-119). Nature of the assay: SPR at pH 5.8, antibody immobilized through its light chains, soluble human FcRn.
Procedure: as §1
The target in assay [20] is T4, human CD36 (on HEK 293 or SCC25 cells). Briefly: cell-based or functional assay. The source holds these as a separate data set.
Assay [21] shares this target. Briefly: FACS, SCC25 cells stably overexpressing human CD36.
Assay [22] addresses T1, nonhuman primate CD36 (on HEK 293 cells). Nature of the assay: FACS, HEK 293 cells transiently overexpressing CD36. This is another data set of the same source.
Assay [23] has as its target T4, human CD36 (on HEK 293 or SCC25 cells). Briefly: cell-based or functional assay. This is another data set of the same source.
Assay [24] addresses T16, human CD36 (His-tagged) (human, UniProt P16671 30-439).
T16 construct: not shown: His tag
Briefly: SPR (Biacore T200), His-captured CD36, bivalent analyte model.

As usually defined, the EC50 is the concentration giving half of the maximal effect. One may read the EC50 (read off the curve) as the midpoint of the concentration-response curve. Broadly, the koff is a measure of how fast the partners let go of each other. In general, kon refers to the rate constant with which the complex forms.

Substitutions are numbered along the chain they refer to. Names and notes keep the numbering of the source.

T16 sequence (P16671 30-439 limits assumed): as the sequence (P16671 30-439 limits assumed) above
T1 sequence (P16671 other isoform, or with tags, fused parts or gaps limits assumed): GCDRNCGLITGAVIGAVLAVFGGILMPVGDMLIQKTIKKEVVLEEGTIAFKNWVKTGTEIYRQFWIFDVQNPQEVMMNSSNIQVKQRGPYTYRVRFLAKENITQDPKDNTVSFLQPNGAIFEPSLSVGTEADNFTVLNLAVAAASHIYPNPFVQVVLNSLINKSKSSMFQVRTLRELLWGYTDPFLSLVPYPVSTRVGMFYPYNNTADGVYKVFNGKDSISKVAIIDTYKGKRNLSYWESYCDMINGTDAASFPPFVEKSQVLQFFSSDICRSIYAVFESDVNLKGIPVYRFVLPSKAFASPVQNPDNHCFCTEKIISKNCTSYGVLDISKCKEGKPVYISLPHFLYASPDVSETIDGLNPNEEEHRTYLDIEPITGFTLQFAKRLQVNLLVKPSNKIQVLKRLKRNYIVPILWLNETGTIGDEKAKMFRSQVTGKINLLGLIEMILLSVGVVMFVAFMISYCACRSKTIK
T4 sequence (P16671 2-472 limits assumed): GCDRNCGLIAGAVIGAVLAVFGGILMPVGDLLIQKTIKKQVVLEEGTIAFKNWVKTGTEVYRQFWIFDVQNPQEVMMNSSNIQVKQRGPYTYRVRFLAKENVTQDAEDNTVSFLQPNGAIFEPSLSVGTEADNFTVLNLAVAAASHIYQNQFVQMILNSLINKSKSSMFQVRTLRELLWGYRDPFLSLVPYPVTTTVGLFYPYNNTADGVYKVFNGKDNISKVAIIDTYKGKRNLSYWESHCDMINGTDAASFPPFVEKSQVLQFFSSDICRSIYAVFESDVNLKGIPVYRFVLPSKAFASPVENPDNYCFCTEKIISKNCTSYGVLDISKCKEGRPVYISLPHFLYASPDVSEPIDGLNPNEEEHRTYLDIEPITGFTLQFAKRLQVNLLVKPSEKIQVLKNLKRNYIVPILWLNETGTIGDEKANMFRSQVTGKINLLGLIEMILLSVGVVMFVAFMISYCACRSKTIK
T9 sequence (P08637 17-208 F176V limits assumed): as the sequence (P08637 17-208 limits assumed) above, with F160V counted along it
human FcRn, sequence (P55899 24-297 limits assumed, chain 1 of 2): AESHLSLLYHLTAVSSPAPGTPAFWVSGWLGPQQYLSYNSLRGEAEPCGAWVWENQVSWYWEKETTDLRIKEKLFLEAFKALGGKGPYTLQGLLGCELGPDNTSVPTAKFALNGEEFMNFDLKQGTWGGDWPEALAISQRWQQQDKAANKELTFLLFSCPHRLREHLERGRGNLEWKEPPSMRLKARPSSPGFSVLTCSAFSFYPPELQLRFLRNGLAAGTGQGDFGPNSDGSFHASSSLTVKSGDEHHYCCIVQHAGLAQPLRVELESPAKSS
human FcRn, sequence (P61769 21-119 limits assumed, chain 2 of 2): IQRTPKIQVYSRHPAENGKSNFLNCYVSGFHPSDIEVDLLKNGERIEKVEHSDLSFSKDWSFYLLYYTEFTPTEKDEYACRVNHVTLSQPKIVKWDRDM
T6 sequence (P02745 23-245 limits assumed, chain 1 of 3): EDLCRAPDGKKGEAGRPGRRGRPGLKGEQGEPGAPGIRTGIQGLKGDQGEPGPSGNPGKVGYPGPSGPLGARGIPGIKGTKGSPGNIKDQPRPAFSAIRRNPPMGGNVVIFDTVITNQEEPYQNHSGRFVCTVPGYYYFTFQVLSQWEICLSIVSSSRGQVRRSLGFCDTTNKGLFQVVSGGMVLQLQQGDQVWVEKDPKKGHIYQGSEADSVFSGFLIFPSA
T6 sequence (P02746 28-253 limits assumed, chain 2 of 3): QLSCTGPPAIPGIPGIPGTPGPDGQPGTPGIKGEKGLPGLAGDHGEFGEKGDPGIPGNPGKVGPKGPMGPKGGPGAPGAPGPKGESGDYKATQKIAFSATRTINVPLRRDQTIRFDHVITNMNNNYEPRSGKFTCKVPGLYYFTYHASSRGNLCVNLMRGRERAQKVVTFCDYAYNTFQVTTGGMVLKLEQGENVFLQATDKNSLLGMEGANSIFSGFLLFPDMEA
T6 sequence (P02747 29-245 limits assumed, chain 3 of 3): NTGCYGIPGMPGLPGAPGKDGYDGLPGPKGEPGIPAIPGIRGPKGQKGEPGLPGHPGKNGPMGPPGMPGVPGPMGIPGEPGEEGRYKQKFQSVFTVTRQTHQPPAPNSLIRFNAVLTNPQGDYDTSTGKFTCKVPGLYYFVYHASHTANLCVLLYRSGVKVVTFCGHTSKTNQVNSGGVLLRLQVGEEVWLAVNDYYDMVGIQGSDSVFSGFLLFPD
T10 sequence (P12314 16-288 limits assumed): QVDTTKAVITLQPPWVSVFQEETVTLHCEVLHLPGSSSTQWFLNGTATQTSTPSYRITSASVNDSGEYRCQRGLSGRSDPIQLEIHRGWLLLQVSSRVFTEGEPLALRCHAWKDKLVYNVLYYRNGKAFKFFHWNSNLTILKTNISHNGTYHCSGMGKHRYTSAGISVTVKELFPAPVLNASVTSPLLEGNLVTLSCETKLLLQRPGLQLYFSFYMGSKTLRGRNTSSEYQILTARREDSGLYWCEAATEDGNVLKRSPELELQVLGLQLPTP

B1: 31G04 (antibody, human IgG1, V domains shown)
VH: QVQLQQSGSELRSPGSSVKLSCKDFDSEVFPIAYMSWVRQKPGHGFEWIGDILPSIGSTIYGEKFEDKATLDADTVSNTAYLELNSLTSEDSAIYYCARDYYGSSYGYFDVWGAGTTVTVPS
VL: DIVLTQSPASLAVSLGQRATISCRASESVDSYGNSFMHWYQQKPGQPPKLLIYRASNLESGIPARFSGSGSRTDFTLTINPVEADDVATYYCQQSNEDPYTFGGGTKLEIK
notes: Chimeric: mouse variable regions on human IgG1 LALA (L234A/L235A)
With B1, in assay [1], the binding result was “no binding (tested: 500 nM top concentration)”. The EC50 in assay [2] worked out at 2.5 nM; in [3] it was 0.27 nM.

B2: 1G05 (antibody, V domains shown)
VH: QVQLKQSGADLVRPGASVKLSCKASGYTFTDYYINWVKQRPGQGLEWIARIYPGSGNTYYNEKFKGKATLTAEKSSSTAYMQLSSLTSEDSAVYFCARGIGGGFGMDYWGQGTSVTVSS
VL: SIVMTQTPKFLLVSAGDRITITCKASQSVSDDVAWYQQKPGQSPKLLIYYASNRYTGVPDRFTGSGYGTDFTFTISTVQAEDLAVYFCQQDYSSPLTFGAGTKLEIK
notes: also called LALAPG
As for B2, in assay [4], the “EC50 (read off the curve)” value is around 0.1 nM. In assay [5], this molecule came in with an EC50 of 0.38 nM.

B3: 1G03 (antibody, V domains shown)
VH: B2 VH
VL: B2 VL
As to B3, the “EC50 (read off the curve)” value in assay [4] was around 0.1 nM. The same molecule registered an EC50 in assay [5] of 0.38 nM.

B4: 26G04 (antibody, human IgG1, V domains shown)
VH: QVQMKESGAELMKPGASVKISCKATGYIFSNYWIEWLKERPGHGLEWIGDFLPGSSSANYNEKFKGKATFTADTSSNTAYMQLSSLTSEDSAVYYCVPFTVEVTDAMDYWGQGTSVTVSS
VL: DIVLTQSHKFMSTSVGDRVSITCKASQDVSTAVAWYQQKPGQSPKLLIYSASYRYTGVPDRFTGSGSGTDFTFTISSVQAEDLAVYYCQQHYSTPRTFGGGTKLEIK
notes: as for B1
For B4, the binding result in assay [1] is “no binding (tested: 500 nM top concentration)”. In addition, the EC50 turned out to be 2.66 nM in [2], 158 nM in [6], 0.72 nM in assay [7] and 0.46 nM in assay [3].

B5: 1G04 (antibody, human IgG1, kappa, L234A L235A)
heavy: not shown
light: SIVMTQTPKFLLVSAGDRITITCKASQSVSDDVAWYQQKPGQSPKLLIYYASNRYTGVPDRFTGSGYGTDFTFTISTVQAEDLAVYFCQQDYSSPLTFGAGTKLEIKRTVAAPSVFIFPPSDEQLKSGTASVVCLLNNFYPREAKVQWKVDNALQSGNSQESVTEQDSKDSTYSLSSTLTLSKADYEKHKVYACEVTHQGLSSPVTKSFNRGEC
notes: Chimeric human IgG1 with L234A/L235A (LALA); variable region of ONA-0-v1; also called 01G04; 001G04; copies: 2 + 2
For the molecule B5, the binding result is “no binding (tested: 250 µg/mL C1q (highest point))” in [8]; “binds” in assay [10]; “binds” in [11]; “binds” in assay [12]; “binds” in assay [13]; “binds” in assay [14]. The binding result in assay [15] is given as “binds”; in assay [16] it was “binds”; in [17], “no binding”; in assay [18] it was “binds”. The “IC50 of oxLDL uptake inhibition (DiI-oxLDL, SCC25 cells)” value in [9] was 0.36 nM. Further, the “EC50 (read off the curve)” value in assay [4] is around 0.1 nM. The figures for the Kd in [19] and in [24] were 676 nM and 3.2 nM, respectively. For the same molecule, in assay [20], the “Percent Fatty Acid Uptake Inhibition” value was 30.5%. The EC50 in [21] worked out at 0.34 nM; in assay [6], 1.99 nM; in assay [7], 2.07 nM; in [22], 1.23 nM; in [5] it was 0.42 nM. For the same molecule, the “IC50 of fatty acid uptake inhibition (BODIPY FL C16, HEK hCD36 cells)” value in assay [23] is 1 nM. Also, in [24], the koff stood at 0.0094 s⁻¹. In addition, the kon in assay [24] was found to be 2.9e+06 M⁻¹ s⁻¹.

Values taken from patent US20250206836A1 (ONA THERAPEUTICS S L, published 2025).
